The values that follow come from US20140120109A1 (Regeneron, published 2014).

A value given as a limit tells only on which side of the number the result lay.

Experiment [1] has as its target T1, full length human TL1A expressed on HEK293 cells (human, UniProt O95150 1-251).
T1 construct: also called HEK293/hTL1A; cell-surface hTL1A
T1 sequence: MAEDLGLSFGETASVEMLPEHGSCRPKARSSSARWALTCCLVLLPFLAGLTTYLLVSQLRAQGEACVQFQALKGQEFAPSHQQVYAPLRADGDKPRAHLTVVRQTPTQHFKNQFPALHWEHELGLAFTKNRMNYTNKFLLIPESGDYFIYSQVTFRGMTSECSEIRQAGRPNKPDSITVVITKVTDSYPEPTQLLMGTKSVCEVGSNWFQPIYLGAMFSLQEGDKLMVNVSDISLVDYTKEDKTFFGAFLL
Briefly: flow, HEK293/hTL1A, mAb 1 ug/ml + 1 ug/ml soluble hTL1A. Here is the method:
(§1) Human embryonic kidney 293 cells stably transfected to over-express cell-surface hTL1A were first stained in a flow cytometric experiment with eight anti-hTL1A antibodies at four concentrations (1, 0.1, 0.01, and 0.003 μg/ml). […] The lowest antibody concentration providing significant staining levels was then used in a competition binding experiment. A negative isotype control antibody (human IgG4) was used at 1 μg/ml to define the background signal. For the competition experiment, eight antibody samples, at the minimal concentrations identified above, were first treated with soluble hTL1A expressed from CHO cells at concentrations ranging from 0.03 μg/ml to 10 μg/ml. After pre-incubation for 30 min on ice, the antibody/hTL1A mixture was added to 293/HEK-hTL1A cells that had been isolated by centrifugation in a 96-well conical plate. After incubation for an additional 10 minutes on ice, the cells were washed. The secondary reagent, anti-h Fcγ-APC F(ab′)₂, was added to all wells at a 200-fold dilution to detect bound antibodies. Samples were incubated for 15 minutes on ice, away from light, and then washed. Cells were processed on an BD™ LSR II Flow Cytometer (BD Biosciences) to detect anti-hTL1A antibodies bound to the cell surface, and data were analyzed using FlowJo software (version 8.8.6; Tree Star Inc.). Maximum signal: Anti-hTL1A antibody binding in the absence of soluble hTL1A; Minimum signal: Signal recorded when […] of isotype control antibody was added in place of the anti-hTL1A antibody. NT: Not tested.

In experiment [2] the target is T1, full length human TL1A expressed on …. Kind of experiment: flow, HEK293/hTL1A, mAb 1 ug/ml + 0.1 ug/ml soluble hTL1A. On the procedure:
as §1

Experiment [3] shares this target. Kind of experiment: flow, HEK293/hTL1A, mAb 1 ug/ml + 0.3 ug/ml soluble hTL1A. On the procedure:
as §1

For experiment [4], the target named is T2, human TL1A, soluble, CHO-expressed, residues 72-251 of SEQ ID NO:244 with N-terminal His6-tag (human, UniProt O95150 72-251).
T2 sequence: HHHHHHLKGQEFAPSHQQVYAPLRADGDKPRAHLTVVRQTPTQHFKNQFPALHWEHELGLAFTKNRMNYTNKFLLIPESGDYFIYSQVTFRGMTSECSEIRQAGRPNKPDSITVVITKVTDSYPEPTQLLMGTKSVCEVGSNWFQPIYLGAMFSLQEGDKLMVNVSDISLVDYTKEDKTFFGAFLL
Briefly: cell-based or functional assay.

Experiment [5] addresses T2, human TL1A, soluble, CHO-expressed, …. Kind of experiment: SPR 37C, mAb captured; kd set at 1e-6 1/s. On the procedure:
(§2) Measurements were conducted on a T100 BIACORE™ instrument. […] Kinetic association (kₐ) and dissociation (kd) rate constants were determined by fitting the data to a 1:1 binding model using BIAevaluation 4.1 curve fitting software (BIAcore Life Sciences). Molar concentrations of TL1A/Fhm used in the data fitting assumed a monomeric state for TL1A in solution. Binding dissociation equilibrium constants (KD) and dissociative half-lives (t_{1/2}) were calculated from the kinetic rate constants as: KD (M)=kd/kₐ; and t_{1/2} (min)=[In2/(60*kd)].

Experiment [6] deals with T3, cynomolgus monkey TL1A, soluble, CHO-expressed, residues 72-251 of SEQ ID NO:248 with N-terminal His6-tag (cynomolgus monkey (Macaca fascicularis), UniProt O95150 72-251 (human entry)).
T3 construct: also called MfTL1A; MfTL1A (CHO)
T3 chain: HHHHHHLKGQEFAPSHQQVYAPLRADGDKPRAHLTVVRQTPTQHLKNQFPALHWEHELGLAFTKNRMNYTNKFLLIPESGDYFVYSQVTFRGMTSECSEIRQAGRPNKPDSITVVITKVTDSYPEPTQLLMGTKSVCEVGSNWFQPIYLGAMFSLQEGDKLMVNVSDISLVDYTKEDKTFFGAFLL
Briefly: SPR 37C, mAb captured; kd set at 1e-6 1/s. On the procedure:
as §2

Experiment [7] concerns the target T2, human TL1A, soluble, CHO-expressed, …. Briefly: cell-based or functional assay. This is another data set of the same source.
Experiment [8] concerns the target T1, full length human TL1A expressed on …. Kind of experiment: flow, HEK293/hTL1A, mAb 0.1 ug/ml + 1 ug/ml soluble hTL1A. Here is the method:
as §1

B1: H4H1681N (antibody, human IgG4 S228P, V domains shown)
VH: EVQLLESGGGLVQPGKSLRLSCAVSGFTFSTYGMNWVRQAPGKGLEWVSSISGTGRTTYHADSVQGRFTVSRDNSKNILYLQMNSLRADDTAVYFCTKERGDYYYGVFDYWGQGTLVTVSS
VL: DIQMTQSPSTLSASVGDRVTITCRASQTISSWLAWYQQTPEKAPKLLIYAASNLQSGVPSRFSGSGSGTEFTLTISSLQPDDFATYYCQQYHRSWTFGQGTKVEIT
For the molecule B1, the figures for the MFI in experiment [1], in experiment [2] and in experiment [3] were 80.9, 327 and 236, respectively.

B2: H4H1745P (antibody, human IgG4 S228P, V domains shown)
VH: EVQLVESGGGLVQPGGSLRLSCAASGFTFSSYAMTWVRQAPGKGLEWVSGVSGRGGSTYYADSVKGRFTISRDNSKNTLYLQMNSLRAEDTAVYYCAYWDISSFDYWGQGTLVTVSS
VL: DIQLTQSPSFLSASVGDRVTITCWASQGISTYLAWYQQKPGKTPKLLIYAASTLQSGVPSRFSGSGSGTDFTLTISSLQPEDFATYYCQQFNSYPLTFGGGTKVEIK
For B2, the MFI in experiment [1] was 26.9; in experiment [2], 93.1; in experiment [3], 115.

B3: H4H1742P (antibody, human IgG4 S228P, V domains shown)
VH: EVQLVESGGGLVQPGGSLRLSCAASGFTFSNYVMNWVRQAPGKGLEWVSVISGSGGSTHYADSVKGRFTISRDNSKDALYLQMNSLRAEDTAVYYCAKGPLEAYYYYNGMDVWGQGTTVTVSS
VL: DIQLTQSPSFLSASVGDRVTITCWASQAISSYLAWYQHKPGRAPKLLIYSTSTLQSGVPSRFSGSGSGTEFTLTISSLQPEDFATYYCQQLNSYPTFGQGTKLEIK
A word on the Kd: it is the constant that tells how readily two partners part at equilibrium. In the case of B3, in experiment [4], the “IC50, IFN-g release, average of donors” value is 20 nM; the “IC50, IFN-g release, donor D1” value stood at 24 nM; the “IC50, IFN-g release, donor D2” value turned out to be 4.6 nM; the “IC50, IFN-g release, donor D3” value was found to be 10 nM. In addition, in experiment [4], the “IC50, IFN-g release, donor D4” value was found to be 13 nM; the “IC50, IFN-g release, donor D5” value amounted to 12 nM; the “IC50, IFN-g release, donor D6” value amounted to 10 nM; the “IC50, IFN-g release, donor D7” value was determined as 31 nM. In experiment [4], the “IC50, IFN-g release, donor D8” value was determined as 27 nM; the “IC50, IFN-g release, donor D9” value worked out at 56 nM; the “IC50, IFN-g release, donor D10” value stood at 12 nM; the “IC50, IFN-g release, donor D11” value is 27 nM. Also, in experiment [4], the “IC50, IFN-g release, donor D12” value was determined as 14 nM. In experiment [5], this molecule came in with a dissociation constant (Kd) not above 0.00437 nM and a t1/2 not below 192 h. Moreover, in experiment [6], the Kd is not above 0.00445 nM and the t1/2 is not below 192 h. Moreover, the MFI in experiment [1] worked out at 32.7. In addition, the MFI in experiment [2] turned out to be 79.4. The MFI in experiment [3] amounted to 44.7.

B4: H4H1817N (antibody, human IgG4 S228P, V domains shown)
VH: QVQLQQWGAGLLKPSETLSLTCAVSGGSFSDYFWTWIRQPPGKGLEWIGEISHSGRTNYNPSLKSRVTISVDTSMSQFSLKMTSVTAADSAVYYCARDYPNWVFDYWGQGTLVTVSS
VL: EIELTQSPGTLSLSPGEGATLSCRASQSVFNSYLAWYQQKPGQAPRLLIYGASRRATGIPDRFSGSGSGTDFTLTISRLEPGDFAVYFCQQYGNSPLTFGGGTKVEIK
notes: human IgG4(S108P) form of H2M1817N
For the molecule B4, in experiment [7], the “% Blocking IFN-g, D1, 1 ug/ml mAb” value was found to be 100%; the “% Blocking IFN-g, D1, 3 ug/ml mAb” value was 100%; the “% Blocking IFN-g, D2, 1 ug/ml mAb” value came to 100%; the “% Blocking IFN-g, D2, 3 ug/ml mAb” value was 100%. In experiment [7], the “% Blocking IFN-g, D3, 1 ug/ml mAb” value turned out to be 90%; the “% Blocking IFN-g, D3, 3 ug/ml mAb” value was determined as 100%; the “% Blocking IFN-g, D4, 1 ug/ml mAb” value came to 90%; the “% Blocking IFN-g, D4, 3 ug/ml mAb” value is 100%. Besides, in experiment [7], the “% Blocking IFN-g, D5, 1 ug/ml mAb” value was determined as 100%; the “% Blocking IFN-g, D5, 3 ug/ml mAb” value was 100%; the “% Blocking IFN-g, D6, 1 ug/ml mAb” value was found to be 45%; the “% Blocking IFN-g, D6, 3 ug/ml mAb” value turned out to be 100%. For the same molecule, in experiment [7], the “% Blocking IFN-g, D7, 1 ug/ml mAb” value is 55%; the “% Blocking IFN-g, D7, 3 ug/ml mAb” value worked out at 100%; the “% Blocking IFN-g, D8, 1 ug/ml mAb” value was determined as 100%; the “% Blocking IFN-g, D8, 3 ug/ml mAb” value was 100%. Further, in experiment [7], the “% Blocking IFN-g, D9, 1 ug/ml mAb” value was found to be 55%; the “% Blocking IFN-g, D9, 3 ug/ml mAb” value stood at 95%; the “% Blocking IFN-g, D10, 1 ug/ml mAb” value came to 80%; the “% Blocking IFN-g, D10, 3 ug/ml mAb” value turned out to be 85%. Also, in experiment [4], the “IC50, IFN-g release, average of donors” value amounted to 6.5 nM; the “IC50, IFN-g release, donor D1” value worked out at 6.6 nM; the “IC50, IFN-g release, donor D2” value worked out at 3.1 nM; the “IC50, IFN-g release, donor D3” value amounted to 4.7 nM. Moreover, in experiment [4], the “IC50, IFN-g release, donor D4” value stood at 2.4 nM; the “IC50, IFN-g release, donor D5” value worked out at 8.5 nM; the “IC50, IFN-g release, donor D6” value stood at 4.7 nM; the “IC50, IFN-g release, donor D7” value turned out to be 7 nM. For the same molecule, in experiment [4], the “IC50, IFN-g release, donor D8” value worked out at 7 nM; the “IC50, IFN-g release, donor D9” value worked out at 9.5 nM; the “IC50, IFN-g release, donor D10” value came to 7.3 nM; the “IC50, IFN-g release, donor D11” value was 7.3 nM. Also, the “IC50, IFN-g release, donor D12” value in experiment [4] was found to be 9.4 nM. Also, the MFI in experiment [1] amounted to 29.1. Moreover, the MFI in experiment [2] came to 97.2. Also, the MFI in experiment [3] turned out to be 23.6.

B5: H4H1704N (antibody, human IgG4 S228P, V domains shown)
VH: EVQLVESGGGLVQPGGSLRLSCAVSGFTFSSYWMSWVRQAPGKGLEWVANIKEDGSEKNYVDSVKGRFTLSSDNAKNSLYLQMNSLRAEDTAVYYCAREDYDSYYKYGMDVWGQGTAVIVSS
VL: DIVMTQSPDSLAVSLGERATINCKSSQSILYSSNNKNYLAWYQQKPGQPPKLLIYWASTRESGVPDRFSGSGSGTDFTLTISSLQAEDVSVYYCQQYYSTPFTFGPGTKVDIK
notes: human IgG4(S108P) form of H2M1704N
B5: in experiment [4], the “IC50, IFN-g release, average of donors” value came out at 12 nM; the “IC50, IFN-g release, donor D5” value is 17 nM; the “IC50, IFN-g release, donor D6” value turned out to be 11 nM; the “IC50, IFN-g release, donor D7” value worked out at 12 nM. Besides, in experiment [4], the “IC50, IFN-g release, donor D8” value is 19 nM; the “IC50, IFN-g release, donor D9” value is 7.5 nM; the “IC50, IFN-g release, donor D10” value amounted to 10 nM; the “IC50, IFN-g release, donor D11” value turned out to be 11 nM. For the same molecule, the “IC50, IFN-g release, donor D12” value in experiment [4] was 8 nM. For the same molecule, in experiment [5], the Kd is not above 0.001 nM and the t1/2 was not below 192 h. In experiment [6], this molecule came in with a Kd not above 0.00093 nM and a t1/2 not below 192 h. In experiment [8], the MFI was 26.
